# The DeepSol protein solubility set
# Test: soluble on expression in E. coli; label from the status in PepcDB or PDB records
row,Sequence,soluble on expression in E. coli
1,MSTTIRFLRIVTSRAMSSSWSCNKCTFLNSASQKLNCMICLAPVSLPSLSPPPPSLSISANDEAKWACKACTFLNTYKNSICDVCGTRSPTSSLLGFQDLTDSGLESNDADSSVGSVFFPLRRCIKRKAMDDDVVEVDGASVVCSESQGVMKKNKEIETKGVASDSGTPLTCLKILSYNVWFREDLELNLRMRAIGHLIQLHSPHLICFQEVTPEIYDIFRKSNWWKAYSCSVSVDVAVSRGYYCMLLSKLGVKSFSSKSFGNSIMGRELSIAEVEVPGRKPLVFATSHLESPCPGPPKWDQMFSRERVEQAKEAIEILRPNANVIFGGDMNWCDKLDGKFPLPDKWVDVWEVLKPGDLGFTYDTKANPMLSGNRALQKRLDRILCRLDDYKLGGIEMVGKEAIPGLSYVKEKKVRGDIKKLELPVLPSDHFGLLVTLSPK,soluble
2,MTGMRKTLKATLAEARAQVEAALKEEGFGILTEIDVAATLKAKLGLEKPPYLILGACNPNLAARALEALPEIGLLLPCNVVLREAEEGVEVLIQDPKEMFRVLPEATQRALAPVAEEARTRLSRALSRL,soluble
3,MNILLANPRGFCAGVDRAISIVELALEVHGAPIYVRHEVVHNRFVVDDLKAKGAIFVEELDEVPDSAIVIFSAHGVSQAVRQEAKRRGLKVFDATCPLVTKVHMQVARASKKGTKAILIGHQGHPEVIGTMGQYYNEQAGIFLVETVEDIANLPIHHHEDLTFMTQTTLSVDDTSGMIEALKNKYPAIQGPRKNDICYATTNRQQAVRELAKQAQLVLVVGSKNSSNSNRLAELASRMGVLAKLIDGPQDILPEWLDNVETIGITAGASAPEILVQSVVAHLQTLGATSVANLVGCEENMVFEVPKELRVREVKMAGDPLEHHHHHH,not soluble
4,SSNEHGPVKRSSQSTLERSEQQIRAASSLEELLRITHSEDWKLWRCRLRLKSFTSMDSRSASHRSTRFAATFYDIETLKVIDEEWQRTQCSPRETCVEVASELGKSTNTFFKPPCVNVFRCGGCCNEESLICMNTSTSYISKQLFEISVPLTSVPELVPVKVANHTGCKCLPTAPRHPYSIIRRSIQIPEEDRCSHSKKLCPIDMLWDSNKCKCVLQEENPLAGTEDHSHLQEPALCGPHMMFDEDRCECVCKTPCPKDLIQHPKNCSCFECKESLETCCQKHKLFHPDTCSCEDRCPFHTRPCASGKTACAKHCRFPKEKRAAQGPHSRKNP,soluble
5,SYHLDTTAPPPTNLSTLPNNTLFHLWRPRAHILPAEGQIGDPCAHYTDPSTGLFHVGFLHDGDGIAGATTANLATYTDTSDNGSFLIQPGGKNDPVAVFDGAVIPVGVNNTPTLLYTSVSFLPIHWSIPYTRGSETQSLAVARDGGRRFDKLDQGPVIADHPFAVDVTAFRAPFVFRSARLDVLLSLDEEVARNETAVQQAVDGWTEKNAPWYVAVSGGVHGVGPAQFLYRQNGGNASEFQYWEYLGEWWQEATNSSWGDEGTWAGRWGFNFETGNVLFLTEEGHDPQTGEVFVTLGTEGSGLPIVPQVSSIHDMLWAAGEVGVGSEQEGAKVEFSPSMAGFLDWGFSAYAAAGKVLPASSAVSKTSGVEVDRYVSFVWLTGDQYEQADGFPTAQQGWTGSLLLPRELKVQTVENVVDNELVREEGVSWVVGESDNQTATLRTLGITIARETKAALLANGSVTAEEDRTLQTAAVVPFAQSPSSKFFVLTAQLEFPASARSSPLQSGFEILASELERTAIYYQFSNESLVVDRSQTSAAAPTNPGLDSFTESGKLRLFDVIENGQEQVETLDLTVVVDNAVVEVYANGRFALSTWARSWYDNSTQIRFFHNGEGEVQFRNVSVSEGLYNAWPER,soluble
6,MIVSFMENYSDALNDIFQSLADPTRRAVILRLGGGEASIGTLAEPFAMALPSFMKHIRQLEEAGLIVTRKQGRVRFCSLEKQRFSMLDGWLSQQRAVWEGRTDRLEQFVMAQQDRMSSKGENDQ,not soluble
7,MNLTVSHLDKLRLPLLHKIYKENYPSGKPKGKEEIIVIEGDKKILGAMRIKTYEECHFLTGMMIIKERRGESLGSQLLFKLNEFLSLEHCYCFCEPQLSEFYLKNDFIHIDKKNIPHVLKSKHDRYTNTGKELDILLYKKTNN,not soluble
8,MSLTQDYELVVKGVRNFENKVAVTVALRDKKRFDGEIFDLDISLDRVEGAALEFYEAAARMRIRQVFLDVAAGLCVGDEQSPEKRPIILEAQNVWITYKGKLPGRITGSLKTPPTALRSEGHHHHHH,not soluble
9,MGSDKIHHHHHHMLIHICCSVDNLYFLKKAKEAFAGEKIVGFFYNPNIHPYSEYLLRLEDVKRTCEMLGIELLEGDYELEKFLDKAKGKELLGEKSERCFECFDLRLEASALKAFELGEEKFTTTLLTSPKKDPNQLIAKGQHIAQRHNLEFVVFRNDNFEHFKSELDLNLQALARENELYRQNYCGCQFALKIQKESQNRSPFELYSPLKRQILPASIEERTQVFRELDAAKKDANKPFLAQKTIATYRLLNGGVWLSKNSNPLDCCILARSKSKAKVRINDLRWVFSQRLSALVGYSQRDETLFLTLEGLNTLMAKNYDNLKELNLNPLSYEEELSLRALVSGSESINPIIVLEERTEKTLFVEIKSIFQEEKVFYLL,not soluble
10,MSITAQLAALAGHGIELAKEIFAHGTSLKSKEDLAAVLGFDPTRVGRYQKTAKALFGPTDQPQLRAQAIAIAQKNNFSIDVLALINCKVGRLADAPLREEFRLELHRFAVDNSYTAIKQFANDQLEKRNGPNPARQHSLRYARFSHHPDANGMRYLITSLPDETMTAIEAKLVDKAKAHKSDTISM,not soluble
11,MKVNILMATYNGEKFLAQQIESIQKQTFKEWNLLIRDDGSSDKTCDIIRNFTAKDSRIRFINENEHHNLGVIKSFFTLVNYEVADFYFFSDQDDVWLPEKLSVSLEAAKHKASDVPLLVYTDLKVVNQELNILQDSMIRAQSHHANTTLLPELTENTVTGGTMMINHALAEKWFTPNDILMHDWFLALLAASLGEIIYLDLPTQLYRQHDNNVLGARTMDKRFKILREGPKSIFTRYWKLIHDSQKQASLIVDKYGDIMTANDLELIKCFIKIDKQPFMTRLRWLWKYGYSKNQFKHQVVFKWLIATNYYNKRLEHHHHHH,soluble
12,MSSAAADESDAVLENLIAKEILPQTGNWEGTEEFLNRIVQVLLKYIKDQNDRDQKILEFHHPDKMQMLMDLSIPEKPESLLKLVKSCEDVLRLGVRTGHPRFFNQISCGLDLVSMAGEWLTATANTNMFTYEIAPVFILMEKSVMARMWEAVGWDPEKADGIFAPGGAIANLYAMNAARHQLWPRSKHLGMKDIPTLCCFTSEDSHYSIKSASAVLGIGADYCFNIPTDKNGKMIPEALEAKIIECKKEGLTPFFACCTAGSTVYGAFDPLERVANICERHKLWFHVDAAWGGGMLLSPEHRYKLAGIERANSVTWNPHKLMGALLQCSACLFRQDGLLFQCNQMSADYLFQQDKPYDVSFDTGDKAIQCGRHNDVFKLWLMWKSKGMEGYRQQINKLMDLANYFTRRIKETEGFELIIENPEFLNICFWYVPSKIRNLEPAEMRARLEKIAPKIKAGMMQRGTTMVGYQPDKQRPNFFRMIISNQAITREDLDFLIKEIVDIGESLE,not soluble
13,MAATVVIVAWIANRPPASSHEPSPTPNTQLAEQPLIGLGGGVTVRELTQDTPFSLVALTGDLAGTSARVRAKRPDGDWGPWYQTEYETEPRDPAGTDGSVELGGLNPGPRSTDPVFVGTTTTVQVAVTRPIDAPITQPPAGRPPNDLLDSGLGYRPATKEQPFGQNISAILISPPQAPPGTQWTPPTAVTMAGQPPAIISRAEWGADESLRCETPEYDRGVRAAVVHHTAGSNDYSPLESAGIVKAIYTYHSKTLGWCDIAYNALVDKYGQVFEGSAGGLTKPVEGFHTGGFNRNTWGVAMIGNFDDVAPTPIQIRTVGRLLGWRLGMDDVDPRSMVDLQSAGSSYTTFPGGAIARLPAIFTHRDVGNTDCPGNAAYAVMDEIRDIAAHFNDPPEELIKALEGGAIYQRWQALGGMNSALGAPTSPEADAADGARYATFAKGAMYWSPVTDAQPITGAIYEAWASQSYERGPLGLPTSAEIQEPLQITQNFQHGTLNFERLTGNVTEVVDGITTPLATRPPSGPTVPPEHFTLPTHPIT,soluble
14,LKVLTNKASVMLFMKGNKQEAKCGFSKQILEILNSTGVEYETFDILEDEEVRQGLKTFSNWPTYPQLYVRGDLVGGLDIVKELKDNGELLPILKGE,soluble
15,LFDLGHPLLNRIADSFVKAAGVGALQAVSREAYFTVVDGAGFDSNNVGPPSEITGNKKHRFPNLRGESSKSLDALVKNTGKESLQWGLAAGLYSGITYGMTEVRGGAHDWRNSAVAGALTGAAMAMTTSERTSHEQVVQSALTGAAISTAANLLSSVF,not soluble
16,MGNRLSKIATRTGDDGTTGLGDGSRVRKDDARIAAIGDVDELNSQIGVLLAEPLPDDVRAALSAIQHDLFDLGGELCIPGHAAITDAHLARLDGWLAHYNGQLPPLEEFILPGGARGAALAHVCRTVCRRAERSIVALGASEPLNAAPRRYVNRLSDLLFVLARVLNRAAGGADVLWDRTRAH,soluble
17,MYIAHIFRVSVAHLQFFNGPTTKNWAEPYQSIETSDTQSHITWQALIGRPFIFVEKKFLLFLSKKFSLVGNFPIPSNFADQFSSVSIPSESLPFSRKSFSDHHPWLPLISMESSWE,not soluble
18,MGSDKIHHHHHHCSTEVTEYRQQQPALDIFHYFQGRTEAWGMVQDRSGKQLRRFHVEIDGDVVGDTLTLHERFVYDDGEKQQRIWRIRRTGDNRYQGTAGDIEGVASGQAAGNAFHWRYSMNVEASGSRWLLHFDDWMFLQDGSHLFNKTEMKKFGITVATVTLFFTRTTAEERTAP,not soluble
19,MIFEQGIEIKASATVVEQCFTDLDLMHLWLNPALRCEPIGQWSTAIGGRSRFTIQIPLLKPSLKSVVVERSPGLVVWQFKGFFQGQDRWECRPLEEGTYLLNRFEFTVPNPVVQWGFQMFAARWTSADMQAQLRRLKQVAEREYINSLEHHHHHH,not soluble
20,MIKDVHRCFVIACIPGKKPYTLALSDFISATAACFKSGIPLKTLKESLENMKETYFRPLKVEEFELLRTWLTLVYKTLKEVLFPLTENKRGICDTDDSIYDEFVKSIVTAIREGYSMEKIRLEQVVTNTKTQPRTEFESALLSQSTRIVVQTVQIAKEFSSEQ,not soluble
21,VKSNAQIDSVKCFSTMNDEEIVEDSRAGDDRALEYLINKYKGFVRAKARTYFLIGADREDIIQEGMIGLYKAIRDFRKDKLSSFRAFAELCITRQIITAIKTATRQKHIPLNSYVSLNKPIFDEESDRTLMDIISEESINDPEEMVINREEFSGIEAKMGEILSSLECEVLTSYLQGKSYQEIAVELDRHVKSIDNALQRVKRKLEKYLEESRI,soluble
22,MSKFTIGPLPCKNPESFTKLSAKKDTVRKTEPVEVVCRNVEGENNGECYKIKAPKTPFIINHLEKNYIPKPKETTKKRRAGEAGGVKREHSTSESDDQLEDANQPSTSSQQSSSRKKQRNQQDI,not soluble
23,MAHHHHHHMWRRGVAAVPLPLWQGKLLQLVHHRALSTDTTGDEATAWSRAMEAKYGTGTYKLFRPLYKDLSDEMRLEAYTKPPAPMQGWSVHHDEAVNLAIFSHKGDSRSRTARVVAYSPITVENPESLNPLLYFMDWYPINVLMERNGVVVHFSIASTEGGMHMRNVRVYKAQDELSPNDPEKQDLPNRDSECERLMSTTDDAAWVRHNLYYDGPCLWHLELDMLNELYDVMQDHGVTLDWVRWVAEWVHYLEHVSYVRWALGVLQELIPVDERGPEDDFLTFEEKEALATPPEEWLEAHYI,not soluble
24,MSAVEQFVSYCRDEIEIVARLVDLLEQEQKLLIRGESLQLEPLADRKSEVLDQLAAQSAQRGRLMESLGVQDKDTLYIWLADKPSACKEWTRLEDAVNRAQSINQLNAAFVDERLAQVESSLDVLRTAAASTLGYGPDGQPPELVSGRRLLGSA,not soluble
